experiment: yeast display, Sf9 membrane polyspecificity reagent, FACS + sequencing; frameworks hold sequencing errors
In short: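 A synthetic nanobody library was expressed on Saccharomyces cerevisiae BJ5465 by galactose induction for 36–48 hours. The library was stained for 1 hour at 4 °C with 10% biotinylated, detergent-solubilized Sf9 membrane reagent and enriched with streptavidin microbeads before FACS. Low and high (top ~1%) gates were set on anti-HA fluorescence for expression and streptavidin fluorescence for reagent binding, and each polyreactivity label reflects the gate of origin.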

Sequence | polyreactivity (PSR sort gate)
QVQLVESGRGLVQAGGSLRLSCAASGSTFRYYAMGWYRQAPGKERELVASITRGASTNYADSVKGRFTISRDNAKNTVYLQMNSLKPEDTAVYYCAADNYCHTFGGTDLRDDYWGQGTQVTVSS | low polyreactivity
QVQLVESGGGLVQAGGTLRLSCAASGGIFSYAMGWYRQAPGKERELVADINSDGSTTYADSVKGRFTISRDNAKNTVYLQMNSLKPEDTAVYYCAADTYFWSYSYNYYYWGQGTQVTVSS | low polyreactivity
QVQLVESGGGLVQAGGSLRLSCAASGFTFWLYSMGWDRQAPGKEREFVAAISTSGGSTYADSVKGRFTISRDNAKNTVYLLMNSLKPEDTAVYYCAGVYTYPLGYYHYTYDYWGQGTQVTVSS | low polyreactivity
QVQLVESGGGLVQAGGSLRLSCAASGFTFPYYAMGWYRQSPGKERELVASISRRGGSTYYADSVKGRFTISRDNANNSVYLQMKSLKPEDTAVYYCAADGSRGRWTFDYWGQGTQVTVSS | high polyreactivity
QVQLVESGGGLVQAGGSLRLSCAASGFTFGYYAMGWYRQAPGKERELVATIDRGGGTSYADSVKGRFTISRDNAKNTVYLQMNSLKPEDTAVYYCAAVRQGYVAYYYWGQGTQVTVSS | high polyreactivity
QVQLVESGRGLVQAGGSLRLSCEDSGNIFPYYAMGWYRQAPGKERELVAAISGSGDRTYYADSVNGRFTISRDNAKNTVYLQMNSLKPEDTAVYYCAAYRRYYGWYDYWGQGTQVTVSS | high polyreactivity
QVQLVESGGGLVQAGGSLRLSCAASGSNLVTNSMGWYRQAPGKERELVATITSSGTSTYYADSVKGRFTISRDNAKNTVYLQMNSLKPEDTAVYYCNADDQFAYVVYLWEYHIVQYDYWGQGTQVTVSS | high polyreactivity
QDQLVESGGGLVQAGGSLRLSCAASGRIFYRYAMGWYRQAPGKERELVATISRSGGSTNYADSVKGRFTISRDNAKKTVYLQLNSLKPEDTAVYYCAAQYTYRFPYPGYATTHDYWGQGTQVTVSS | high polyreactivity
QVQLVESGGGLVQAGGSLRLSCAASDAMGWYRRAPGKERELVASISNGVSTNYADSVKGRFTISRDNAKNTVYLQMNSLKPEVTAVYYCASDAKTVGRDDLYWYEVEFDYWGQGTQVSVSS | low polyreactivity
QVQLVESGGGLVQAGGSLRLRCAASGFTFGYNAMGWYRQAPGKERELVAAIYFSDGITYYADSVKGRFTISRDNAKNTVYLQMNSLKPEDTAVYYCAADLYFEYEYWGQGTQVTVSS | high polyreactivity
QVQLVESGGGLVQAGGSLRLSCAASGFIFYRYAMGWYRQAPGKERELVAAISWSGGTTYYADSVKGRFTISRDNAKNTVYLQMNSLKPEDTAVYYCAARSVPSPERGFYYWGQGTQVTVSS | high polyreactivity
QVQLVESGGGLVQAGGSLRLSCAASGLIFARYAMGWYRQAPGKERELVAAISSRGGGTYYADSVKGRFTISRDNAKNTVYLQMNSLKPEDTAVYYCNRLRGTPVGLSIGGYYYWGQGTQVTVSS | high polyreactivity
QVQLVESGGGLVQAGGSLRLSCAASGRIFGVNAMGWYRQAPGNERELVAHIRSSGASTYYADSVKGRFTISRDNAKNTVYLQMNSLKPEDTAVYYCARDYFVDGPGYDYWGQGTQVTVSS | low polyreactivity
QVQLVESGGGLVQAGGSLRLSSAASGSIFARYAMGWYRPAPVKERELVAAISGRGGSTYYADSVKGRFTISRDNAKNTVYLQMNSLKPEDTAVYYCNAVGHTSIRRALDILDYWGQGPQVTVSS | high polyreactivity
QVHLVESRGGLDQAGGSLRLSCAASGRTVYQYAMGRNRQAPGKERELVAAITRSGSRTYYADTVKGRFTISRDNAKNTVYLQMNSLKPEDTAVYYCAADGHGGFPIDEYYYWGQGTQVTVSS | high polyreactivity
QVQLVESGGGLVQAGGSLRLSCAASGRTFRLYAMGWYRQAPGKERELVAAISARGSSTYYADSVKGRFTISRDNAKNTVYLQMNSLKPEDTAVYYCAAKRSYPYGSGYWGQGTQVTVSS | high polyreactivity
QVQLVESGGGLVQAGGSLRLSCAASGITFRRYAMGWYRQAPGKERELVAAITSSGGSTYYADSVKGRFSISRDNAKNTVYLQMNSLKPEDTAVYYCAARAYRVNWSSWYRSGYDYWGQGTQVTVSS | high polyreactivity
QVQLVESGGGLVQAGGSLRLSCAASGFTFSRNTMGWYRQAPGKERELVARISASGGSTYYADSVKGRFTISRDNAKNTVYLQMNSLKPEDTAVYYCAAVYRRYGGSRYDYWGQGTQVTVSS | high polyreactivity
QVQLVESGGGLVQAGGSLRLSCAASGRIFRDYDMGWYRQAPGKERELVASISTRGGSTYADSVKGRFTISRDNAKNTVYLQMNSLKPEDTAVYYCAADSSGFSRYDYWGQGSQVTVSS | low polyreactivity
QVQLVESVGGLVQAGGSLRLSCAASGSIFYYNTMGWYRQAPGKVRELVATISSDGGTNYADSVKGRFTISRDNAKNTVYLQMNSLKPEDTAVYYCAAAVSPYSYWPGFDYWGQGTQVTVSS | low polyreactivity
QVQLVESGGGLVQAGGSLRLSCAASGFIFSYYAMGWYRQAPGKERELVAANSSSGGTTYADSVKGRFTISRDNAKNTVYLQMNSLKPEDTAVYYCARVQYWFYKPMYYWGQGTQVTVSS | high polyreactivity
QVQLVESGGGLVQAGGSLRLSCAASGYISNAMGWYRQAPGKERELVAAISRSGGSTYYADSVKGRFTISRDNAKNTVYLQMNSLKPEDTAVYYCAGDSTYHARRLDYWGQGTQVTVSS | low polyreactivity

Sequence | polyreactivity (PSR sort gate)
QVQLVESGGRLVQAGGSLRLSSAASGSTFYVYTMGWYRQAPGKEWELVAAISSGSSTNYADSVKGRFTISRDNAKNTVYLQMNSLQPEDTAVYYCAATRFSYVFPYRYDYWGQGTQVTVSS | low polyreactivity
QVQLVESGGGLVQAGGSLRLSCAASGRIFGLYAMGWYRQAPGKERELVARITRGGSTYADSVKGRFTISRDNAKNSVYLQMNSLKPEDTAVYYCNAEWIVRNSGDYEYWGQGTQVTVSS | high polyreactivity
QVQLVESGGGLVQAGGSVRLICAASGSIFYTYAMGWYRQAPGKERELVAAISKRGGSTYDADSVKGRFTISRDNAKNTVYLQMNSLKPEDTAVYYCAADTQHVYGSNFYYWGQGTQVTVSS | high polyreactivity
QVQLVESGGGFVQAGGRLRLSCAASGRIFWMNAMGWYRQAPGKETEFVASITYGSDSTYYADSVKGRFTISRDNAKNTVYLQMNSLKPEDTAVYYCNREGWHYGPYGYWGQGTQVTVSS | low polyreactivity
QVHLVESGGGLVQAGGSLRLSCAASGSTFQLYAMGWYRQAPGKERELVAAITSSAGRTYYADSVKGRFTISRDNAKNTVYLQMNSLKPEDTAVYYCAKDGSFTFWGQGTQVTVSS | low polyreactivity
QVQLVESGGGLVQAGASLRLSCAASGRIFWHNAMGWYRQAPGKERELVAAMTRGGSTYYADSVKGRFTISRDNAKNTVYLQMNSLKPEDTAVYYCATLGSLRYYWPGYDYWGQGTQVTVSS | low polyreactivity
QFQLVESGGGLVQAGGSLRLSCAASGSTFTPNVMGWYRQAPGKERELVAAINSSGGSTFYADSVKGRFTISRDNAKNTVYLQMNSLNPEDTAVYYCAASWHTPTVYDEYYYWGQGTQVTVSS | low polyreactivity
QVQLVESGGGLVQAGGSLRLSSAASGRIFPRYGMGWYRQAPGKERELVAAISIGGSTHYADSVKGRFTISRDNAKNTVYLQMNSLKPEDTAVYYCNKDIYVYWLFRLGMGYWGQGTQVTVSS | low polyreactivity
QVQLVESGGGLVQAGGSLRLSCAASGFTFSRYAMGGYRQAPGKERELVAAISIRGGNTYYADSVKGRFTISRDNAKNTVYLQMNSLKPEDTAVYYCAAAGRYLRYAYWGQGTQVTVSS | high polyreactivity
QVQLEESGGGLVQAGGSLRLSCAASGSTFWRYAMGWYRQAPGKERELVAAISWNGGSTYYADSVKGRFTISRDNAKNTDYLQMNSLKPEDTSVFYCNRRYPFYSRYNNDYWGQGTQVTVSS | high polyreactivity
QVQLVESGGGLVQAGGSLRLSCAASGRTFRENAMGWYRQAPGKERELVAAISWRAGSTYYADSVKGRFTISRDNAKNTVYLQMNSLKPEDTAVYYCAAKYTVSFYLWGTFNYWGQGTQVTVSS | high polyreactivity
QVQLVESGGGLVQAGGSLRLSCAASGRIIIGYVMGWYRQAPGKERELVATISYSGGSTYADSVKGRFTISRDNAKNTVYLQMNSLKPEDTAVYYCAARPYYRYYRYPYGYWGQGTQVTVSS | high polyreactivity
QVQLVESGGGLVQAGGSLRLSCAASGRTFYLNAMGWYRQAPGKERQLVAVISYRGDSTYADSVKGRFTISRDNAKNTVYLQMNSLKPEDTAVYYCAADLTRYHYRYLVTHWWYDYWGQGTQVTVSS | low polyreactivity
QVQLVESGGGLVQARGSLRLSCAASGSTFHQYVMGWYRQAPGKESELVAAINSSGSSTYYADSVKGRFTISRDNAKNTVDLQMNSLKPEDTAVYYCARDGLRNPGGYGFWGQGTQVTVSS | low polyreactivity
QVQLVESGGGLVQAGGSLRLSCAASGSTFWDYAMGWYRPAPGKERELVAAISTSGGSTYYADSVKGRFTISRDNAKNTVYLQMNSLKPEDPAVYYFAAGRVRRRVWYNYWGQGTQVTVSS | high polyreactivity
QVQLVESGGGLVQAGGSLRLSCAASGINFGSNAMGWYRQAPGKERELVAAISKRGGNTYYADSVKGRFTISRDNAKNTVYLQMNSLKPEYTAVYYCATQQYLYAQKSYVEMDYWGQGTQVSVSS | high polyreactivity
QVQLVESGGGLVQAGGSLRLSCAASGNIFFGNTMGWYRQAPGKERELVAAISRSGGSTYYADSVKGRFTISRDNAKNTVYLQMNSLKPEDTAVYYCAAEYYGWPYDSWGQGTQVTVSS | high polyreactivity
QVQLVESGGGLVQAGGSLRLSCAASGRTFGLYAMGWYRQAPGKERELVATITTSDIMTYYADSVKGRFTISRDNAKNTVYLQMNRLKPEDTAVYYCATGGYDDFSSRPANDYWGQGTQVTVSS | low polyreactivity
QDQLVESGGGLVEAGGSLRLSCAASGITFSWYAMVWKRQAPGKEREFVAAISPGGTSTYYADSVKGRFTISRDNAKKTVYLQMNSLKPEDTAFYYCAVQWLYPYDYWGHGTQVTVSS | high polyreactivity
QVQLVESGGGLVQAGGSLRLSCAASGVIFGRYAMGWYREAPGKERELVAAISWGGGSTRYADSVKGRFTISRDNAKNTVYLQMNSLKPEDTAVYYCAAYRYWGRTSYSYDYWGQGTQVTVSS | high polyreactivity
QVQLVESGGGLVQEGGSLRLSCAASGSTFYSNAMGWYRQARGKEREFLAAISWSGGSTYYADSVKGRFTISRDNAKNTVYFQMNSLKPEDTAVYYCAKKPYYYAFCGYGYWGQGSQVTVSS | high polyreactivity

— the nanobody polyreactivity screen of Harvey et al. (2022)
